Source: the DeepSol protein solubility set

assay: soluble on expression in E. coli; label from the status in PepcDB or PDB records

Row | Sequence | soluble on expression in E. coli
1 | MGSDKIHHHHHHMYRVMFVDDEYMILEGLKWIIPWQELGFEIVKTARSAQEALAFLETESIDVLLTDITMPEMSGIELIEQAKKKGHQFISLILSGYQEFDYVKKGMALQVQDYLLKPVNKQELLANIQRIKIELDQQKKSHARVRLYLENGLMRWLNDEISEGEYEELMQQFATIKPGDFTVLLVEAEMSFLETIKELFMKKGQLLFIESWMSTYHQLLLIYKGARQEAFLFIREIEAILAGQGQIFVGESVNEWETVYESYEKVKQLQAIETFYQEFLPNNQKEQMNRSAEDFTFLAFNQALMIGDMQTIQRELDAIFNQLSQQHATPEYVRYVVFLLFSDISRQYPTVLEENYEKIVEEIRASNNLNTLYALMQQVLAEVKNKPKIKKYSESVSQAVERIEQGYLEELNLKTVADELHLNPSYLGQIFKKETKRSFSQYLNQVRTKHAQKLLLYTDDTINEISEKVGFNNTNYFSKMFKKLNGITPKEFREQYQSNYAGVEE | not soluble
2 | MAHHHHHHMRKPGRKIVYVPDDDAQFLGSMSDPLPPRVSDLLRLKSPSMSDNGHAETGSNGTTGSPGYESIGNELLVSYGGYTLADGSGTLHPPTTRRNGAQLYKSLRKCCRFLRASLSDSMAPKLETDSESSWSCPSFCSSDPTSSSEYSDVSPQRGRRRAAKQANEQTGYNAMIVVQLRRLLHKRGLSTCGIKKVLVARLEQSDMQLSKSKEEGEEQKEQEELDGSAGECTKTERSEDVCSASCGNVSGRVTAAGPTSMLSSLLSFGSRLFRASTGSVSEGGHVSGLKRRRSV | not soluble
3 | MAGDGSLVASFGDIDRATTVTTIVAGVGSSNPEGWNTYVDRARTVSASTGSATVLWLGYQAPASIPAAVSGAAANRAAADLQRFQAALQSRNPHQRKVVMGYSYGSTVVGKAASSGELSADALVLVGSPGAGVSHSSQLGAPVYAVTGSADPIGFAGTQYDGIHGTDPTAALFGATVWDSPSTHSGYWNDQEFLGNVAEVVRGKLEHHHHHH | not soluble
4 | QSWYGGFKDTAELVRGDSNECIELTDDQLSYLAVLWAARCAVGFQEMKLTRLAKETRLSHEVVQKITQIFISQGIVSVFEEYGPSGQKDVAWVQLTEHGCGLAKNLERVSSHS | not soluble
5 | MLLQANRGLGLSAHIIDHCNLILKFPEGTNSTWYNAQFKVFEALEFKYNVCEAVLLWEQYRNMTTVLTREYLDVRPDGWLDYAAMRIAQLGADKCYNRTLCEEHLNVILPAKPPFHPRQFHKCAVVGNSGDLLKTEFGEEIDSHDAVFRDNEAPVNEKYAKYVGVKRDFRLVVRGAARNMIKILNGSDNEVLIIKSVTHRDFNEMIKRIPNPVYLFQGIVLRRGAKGTGMKSIELALSMCDIVDIYGFTVDPGYTEWTRYFSTPRKGHNPLQGRAYYQLLECLGVQITC | not soluble
6 | MAPLGASPRLVLLFSGKRKSGKDFVTERLKSRLGGNICALLRLSGPLKEEYAREHGLDFQRLLDASTYKETYRRDMICWGEQKRQADPGFFCRKIVEGVSQPIWLVSDTRRTSDIQWFQEAYGAVIQTVRVVASEQSRQQRGWVFTLGVDDAESECGLDNFGNFDWVIENHGDEQCLEDQLEHLLGFIQAKL | soluble
7 | MGSDKIHHHHHHMIQIGKRYSLEVVKQVNFGVYLNAQELGQVLLPNKFVPTGCNVGDMVDVFLYLDSEDIVIATTQKSLAQVGEYAYLKVIATGPFGAFLDWGLDKDLLLPFGEQHKPAEEGHSYLVYVHANHADERIMASSKLDKFVDKTEAHYTEGEQVNLIIGGTTELGYKAIINNLHWGVIYANEVFQKLRFGQKVTGYIKTMRSDGKIDLVLQKGDKDELDKNARLIINKLRSANGFLPLHDKTDADVIYDKLGMSKKAFKKSIGGLFKAGEITIESEGIRLTV | not soluble
8 | MDSEAVSSDSHVAAAIATRRRSNSVSDDYSVQRTNDDATQCKYFATQKGYWKDEFISRFANSSSNVSEARRFPEISMGYWARTAAIEKYVRDFLNEFDGNAQVVSLGCGFDTLFWRLVSSGAKLVKYVEVDFSSVTSKKIRHILKPIGPNSVDLKKSFESDAVVSHHADLHAGNYHLIGADLRQANELDQKLATCQLSHDIPTIFIAECVLVYMSADSSTALLKQIVSQFKQPAFVNYEQFRTSDAFTKVMEQNLGDRGIQLHGLEMCESAEKQEERFRNAGFKEVKVMDMNQIFNNFLDQKEVSRIREIEMLDEMELLQQLFAHYCVVSARI | not soluble
9 | MSLKIVIIGASFAGISAAIASRKKYPQAEISLIDKQATVGYLSGGLSAYFNHTINELHEARYITEEELRRQKIQLLLNREVVAMDVENQLIAWTRKEEQQWYSYDKLILATGASQFSTQIRGSQTEKLLKYKFLSGALAAVPLLENSQTVAVIGAGPIGMEAIDFLVKMKKTVHVFESLENLLPKYFDKEMVAEVQKSLEKQAVIFHFEETVLGIEETANGIVLETSEQEISCDSGIFALNLHPQLAYLDKKIQRNLDQTIAVDAYLQTSVPNVFAIGDCISVMNEPVAETFYAPLVNNAVRTGLVVANNLEEKTHRFIGSLRTMGTKVGDYYLASTGLTETEGLFFPQTLASIIVRQPAPPLQHGTEILGKLIYDKVTQRVLGAQLCSKNNCLEKINTLALSIQTGQTLTDLLQKDYFYQPSLTNIYDITNLMGASAYWRENDEGHHHHHH | soluble
10 | MSQDNSEELIKVEKVEAFFYPIHGIPTMVLYLEDGREFKMFQIPPEIVIALNRLQEKRDYEELLRGDKRENIYDVLAFSSEIKDQLSKIINRVIINDVNEEYGVYIATVEFKFDGVIIEKQLIPSHAVFLAIVSNRPIYVKKNLVDEQEKQERKSGEDV | soluble
11 | MGSDKIHHHHHHMKVTVTTLELKDKITIASKALAKKSVKPILAGFLFEVKDGNFYICATDLETGVKATVNAAEISGEARFVVPGDVIQKMVKVLPDEITELSLEGDALVISSGSTVFRITTMPADEFPEITPAESGITFEVDTSLLEEMVEKVIFAAAKDEFMRNLNGVFWELHKNLLRLVASDGFRLALAEEQIENEEEASFLLSLKSMKEVQNVLDNTTEPTITVRYDGRRVSLSTNDVETVMRVVDAEFPDYKRVIPETFKTKVVVSRKELRESLKRVMVIASKGSESVKFEIEENVMRLVSKSPDYGEVVDEVEVQKEGEDLVIAFNPKFIEDVLKHIETEEIEMNFVDSTSPCQINPLDISGYLYIVMPIRLA | soluble
12 | MGSDKIHHHHHHMRRNQVAIVGAAETTKLGVIPDMSQIQLHADAALNAIADAGLKLSDIDGIATAVETPQQIAHYLGITPTWVDGTSVGGCSFMLHVRHAAAAIEAGLCKTVLITHAESGKSMIGKLPRSIPADSLQGQFEAPYGIYGPPSQFPIPVLRFMKTHGITHEQIASVAVVQREWAAKNPRAMMKDPITVADVLNSRMIAYPFRLLQCCLVTDGGGALIMTSADRAKDFPHKPVYVLGTGESVETPMVSQMETFNSSRAFKVAGPTAFREAGISHSDVDHLMIYDAFAHLPLFGLGDLGFMPYEETGKFIADGNTRPGGKLPLNTNGGGLSYMHSGMYGMYALQESVRQMRGIAPAQVPNAKISVCHGVGGMFAASGTIIFTNEK | not soluble
13 | MSLENLNIENWPVDRLHHSEHATRRNEDAIPRMVDALRMFGFRIPLLVTGAGEVVDGHLRLKAALVMGMASVPVIVVDDMTPTQVRTFRLLINRSATWAEWDDEALRVELASLRDYGVDVTMTGFADAELDAFLQGVSLAGESDPDMVPPLPETPTSRPGDVWNMGGHRLLCGDSTSVEDVVRLMAGEQADMLWTDPPYNVDYSGKAGKIRNDKMSPEDFDAFLLRLLSRSYEALADGAAAYVAHSEAGGGTAFRKAFAHAGYKLASCLIWRKHQLVLGRGDYHWQHEPILYGWKPTGKHRWYGNRKHTTLLEHFAGQTVLPAGEGVWQVATGDAVLLIRGQDVTVEEVSTSILAVAKPARSELHPTMKPVALVERMVANSSPRGGLVLDPCGGSGTTLIACERMGRRCNTMELDPRFADVIVRRWEEVTGKTAVLEGGASFADVPLAREVAHEGHHHHHH | soluble
14 | MPEVHATALIPMLTGTNVPESEEEIDAPIYDQREVEKIRGIAHNIAENAKNPEKLMPDFMAANPGIMSTMESLKLSDFGKTSTVVPSISTSPGPIFTLANGIPAVGTPGTQSSTTVKA | soluble
15 | MKGPNLTEISKKITDSNAVLLAVKEVEALLSSIDEIAAKAIGKKIHQNNGLDTENNHNGSLLAGAYAISTLIKQKLDGLKNEGLKEKIDAAKKCSETFTNKLKEKHTDLGKEGVTDADAKEAILKTNGTKTKGAEELGKLFESVEVLSKAAKEMLANSVKELTSPVVAESPKKP | soluble
16 | MTNLFVRSGISFVDRSEVLTYIGNEMLAKGVVHDTWPQALIAREAEFPTGIMLEQHAIAIPHCEAIHAKSSAIYLLRPTNKVHFQQADDDNDVAVSLVIALIVENPQQQLKLLRCLFGKLQQPDIVETLITLPETQLKEYFTKYVLDSDE | not soluble
17 | MGHHHHHHSHMDADSASQRLVISAPDSQVRFSNIRTNDVAKTPQMHGTEMANSPQPPPLSPHPCDVVDEGVTKTPSTPQSQHFYQMPTPDPLVPSKPMEDRIDSLSQSFPPQYQEAVEPTVYVGTAVNLEEDEANIAWKYYKFPKKKDVEFLPPQLPSDKFKDDPVGPFGQESVTSVTEYVFFLIVTIII | not soluble
18 | MSGELSNRFQGGKAFGLLKARQERRLAEINREFLCDQKYSDEENLPEKLTAFKEKYMEFDLNNEGEIDLMSLKRMMEKLGVPKTHLEMKKMISEVTGGVSDTISYRDFVNMMLGKRSAVLKLVMMFEGKANESSPKPVGPPPERDIASLP | soluble
19 | MGSDKIHHHHHHMTRSVKRVAAIHDLSGFGRASLTAIIPIMSYMGIQVCPMPTAVLSTHTTDFHEYSFVDLTDSMQDFMNHWKKINLEFDAIYTGFLGSPRQVKIISDFVKEFSSDSTLVLIDPVMGDEGELYQTMNSEIVRSMRELIKSADIITPNFTEAAYLLDKDYNLELNEETIKEWILELANMGPDIVIMTSVPENKDKSTISVIAYEKKLNKFWKITSEYIPVSYPGTGDSFASAILGRILKGDNLPQAVGRGMQFITSAIKESYGFDYPTREGILIEKSLEVLNLPFMNGNYKLI | not soluble
20 | MAMRHLSRSRDVTKRSTKKYIEEPLYNRLFKDGGTEVKVRQQLNQFLKGTKHVFKWEVGDTIKKLRNRGLYYPALKLSEVMEERGMNKTVSDQAIHLDLVAKAREITAGENYFVDLPETSKTELTYGSLLNCYCKELLTEKAEGLLNKMKELNITPSSMSYNSLMTLYTKTGETEKVPAMIQELKAENVMPDSYTYNVWMRALAATNDISGVERVIEEMNRDGRVAPDWTTYSNMASIYVDAGLSQKAEKALQELEMKNTQRDFTAYQFLITLYGRLGKLTEVYRIWRSLRLAIPKTSNVAYLNMIQVLVKLNDLPGAETLFKEWQANCSTYDIRIVNVLIGAYAQEGLIQKANELKEKAPRRGGKLNAKTWEIFMDYYVKSGDMARALECMSKAVSIGKGDGGKWLPSPETVRALMSYFEQKKDVNGAENLLEILKNGTDNIGAEIFEPLIRTYAAAGKSHPAMRRRLKMENVEVNEATKKLLDEVSQDV | soluble
21 | SLQKFNQIHSLFEHLPANYGEFSDFEQKIATLAQEMKVDLSLYEIDHLSIRVNTEDKAKSWLTTLLNYGKILSNNLVNGRAIYLIELEQPLLFMGQRVFIIELPFPKNKHYPVESWEHIEFVIPFLPNESSIEWVERVQQQFLWNQSGNLTIKVDEPKVDGEQLPNPSIAVSFADKSQNHVCIKVHPFNIKNIIKVSEG | soluble
